Reference: article PMC7058931, “DNA topoisomerase IIIβ promotes cyst generation by inducing cyst wall protein gene expression in Giardia lamblia”

T1: TOP3β (DNA topoisomerase IIIβ) (Giardia lamblia WB, UniProt A8B577 1-973)
T1 sequence: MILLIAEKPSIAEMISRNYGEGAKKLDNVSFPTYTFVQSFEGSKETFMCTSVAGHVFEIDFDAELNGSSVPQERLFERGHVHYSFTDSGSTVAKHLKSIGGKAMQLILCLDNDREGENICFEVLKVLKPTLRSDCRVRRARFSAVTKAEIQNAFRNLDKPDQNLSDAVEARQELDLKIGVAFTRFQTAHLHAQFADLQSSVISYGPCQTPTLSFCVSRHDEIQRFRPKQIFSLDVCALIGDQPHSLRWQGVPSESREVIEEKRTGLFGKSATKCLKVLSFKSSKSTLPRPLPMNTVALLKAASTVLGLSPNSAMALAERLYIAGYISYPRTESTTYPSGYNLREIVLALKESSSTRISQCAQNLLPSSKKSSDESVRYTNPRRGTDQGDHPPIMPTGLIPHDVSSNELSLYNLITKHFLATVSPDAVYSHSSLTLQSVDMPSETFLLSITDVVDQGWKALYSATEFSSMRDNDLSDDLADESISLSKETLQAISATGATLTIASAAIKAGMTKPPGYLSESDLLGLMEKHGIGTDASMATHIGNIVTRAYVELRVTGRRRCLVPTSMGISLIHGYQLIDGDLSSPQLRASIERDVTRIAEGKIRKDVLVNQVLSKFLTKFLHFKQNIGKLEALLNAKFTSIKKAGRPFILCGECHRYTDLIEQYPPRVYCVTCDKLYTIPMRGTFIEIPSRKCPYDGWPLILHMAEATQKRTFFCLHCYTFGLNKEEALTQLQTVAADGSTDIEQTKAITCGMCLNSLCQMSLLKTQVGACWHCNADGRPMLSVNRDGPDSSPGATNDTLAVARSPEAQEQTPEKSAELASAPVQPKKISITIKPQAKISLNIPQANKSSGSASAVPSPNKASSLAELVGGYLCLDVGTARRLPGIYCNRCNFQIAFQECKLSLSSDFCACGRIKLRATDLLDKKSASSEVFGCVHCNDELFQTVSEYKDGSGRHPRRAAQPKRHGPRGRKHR

B1: cwp1-45/-1 (dsDNA)
DNA 1: GTTTACAACTCTCAGATCAAGAAACACAGAAATAAAATATCAGGG
DNA 2: CCCTGATATTTTATTTCTGTGTTTCTTGATCTGAGAGTTGTAAAC
B2: cwp2-60/-31 (dsDNA)
DNA 1: TAGACTGATGCTGTAGAGGTCAACAGATAA
DNA 2: TTATCTGTTGACCTCTACAGCATCAGTCTA
B3: ran-51/-20 (dsDNA)
DNA 1: TAAAATAAATTAAATCGAAATTAAAACTTTAA
DNA 2: TTAAAGTTTTAATTTCGATTTAATTTATTTTA
B4: 18S-30/-1 (dsDNA)
DNA 1: GGCGCCCGGCCCGCGGCGCCCGCGCCCGGC
DNA 2: GCCGGGCGCGGGCGCCGCGGGCCGGGCGCC
B5: 18S-60/-31 (dsDNA)
DNA 1: CCGTGCCAGGCGGCGGCCCCCGCGCAGGGA
DNA 2: TCCCTGCGCGGGGGCCGCCGCCTGGCACGG
B6: cwp3-30/+10 (dsDNA)
DNA 1: GTCTTTCCCAAAAAATAAGTTACTACTGATATGTTTTCTC
DNA 2: GAGAAAACATATCAGTAGTAACTTATTTTTTGGGAAAGAC
B7: cwp1-90/-46 (dsDNA)
DNA 1: CTGGCTAACAGTCTACAGTCTACAATTTACAGTATACAATCTACA
DNA 2: TGTAGATTGTATACTGTAAATTGTAGACTGTAGACTGTTAGCCAG

Tests used:
[1] = target: T1, TOP3β (DNA topoisomerase IIIβ); assay: EMSA; supershifted by anti-TOP3β; EMSA: 0.02 pmol 32P probe, 5 ng protein, 20 µl, 0.5 µg poly(dI-dC), 15 min at room temperature, 6% acrylamide gel; buffer, salt and pH not given (cited reference); conditions: protein: recombinant, tags: C-terminal V5 and His
[2] = target: T1, TOP3β (DNA topoisomerase IIIβ); assay: EMSA; strong; EMSA: 0.02 pmol 32P probe, 5 ng protein, 20 µl, 0.5 µg poly(dI-dC), 15 min at room temperature, 6% acrylamide gel; buffer, salt and pH not given (cited reference); conditions: protein: recombinant; tags: C-terminal V5 and His; label: 5'-32P
[3] = target: T1, TOP3β (DNA topoisomerase IIIβ); assay: EMSA; EMSA: 0.02 pmol 32P probe, 5 ng protein, 20 µl, 0.5 µg poly(dI-dC), 15 min at room temperature, 6% acrylamide gel; buffer, salt and pH not given (cited reference); conditions: protein: recombinant, tags: C-terminal V5 and His

Binder	binding result ([3]; label: 5'-32P)	binding result ([3]; label: 32P)	other results
B1			binding result ([1]; label: 5'-32P): binds
B2			binding result [2]: binds
B3	binds		
B4	no binding		
B5	no binding		
GTTTACAACTCTCAGATCAAGAAACACAGAAATAAAATATCAGGG (ssDNA) [cwp1-45/-1F]		binds	
CTGGCTAACAGTCTACAGTCTACAATTTACAGTATACAATCTACA (ssDNA) [cwp1-90/-46F]		binds	
TAGACTGATGCTGTAGAGGTCAACAGATAA (ssDNA) [cwp2-60/-31F]		binds	
GTCTTTCCCAAAAAATAAGTTACTACTGATATGTTTTCTC (ssDNA) [cwp3-30/+10F]			binding result ([1]; label: 32P): binds
GGCGCCCGGCCCGCGGCGCCCGCGCCCGGC (ssDNA) [18S-30/-1F]		no binding	
B6			binding result [2]: binds
B7	binds		
